This assay deals with T1, human ASCT2 (SLC1A5) (human, UniProt Q15758 1-541).
T1 sequence (looked up): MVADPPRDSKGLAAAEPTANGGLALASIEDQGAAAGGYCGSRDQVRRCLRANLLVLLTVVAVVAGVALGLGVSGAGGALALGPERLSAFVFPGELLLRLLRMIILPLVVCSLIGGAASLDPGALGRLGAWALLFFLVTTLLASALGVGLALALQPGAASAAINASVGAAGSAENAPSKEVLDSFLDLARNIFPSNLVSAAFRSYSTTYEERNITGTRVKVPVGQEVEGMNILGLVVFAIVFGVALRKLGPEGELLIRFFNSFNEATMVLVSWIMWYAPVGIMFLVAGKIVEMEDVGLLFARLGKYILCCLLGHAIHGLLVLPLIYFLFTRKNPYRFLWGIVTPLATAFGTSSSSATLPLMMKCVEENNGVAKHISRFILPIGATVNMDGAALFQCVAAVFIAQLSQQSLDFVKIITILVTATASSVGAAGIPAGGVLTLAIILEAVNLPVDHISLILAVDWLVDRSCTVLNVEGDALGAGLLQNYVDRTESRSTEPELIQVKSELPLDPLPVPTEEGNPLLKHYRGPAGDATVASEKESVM
Put plainly: cell-based or functional assay.

B1: anti-ASCT2 antibody 17c10 conjugated to tubulysin AZ1508 (antibody, V domains shown)
VH: QVQLQQWGAGLLKPSETLSLTCAVYGGSFSGYYWSWIRQPPGKGLEWIGEIHHSGGANYNPSLKSRVTISVDTSKNQFSLKLTSVTAADTAVYYCARGQGKNWHYDYFDYWGQGTLVTVSS
VL: DIQMTQSPSTLSTSVGDRVTLTCRASQSIRSWLAWYQQNPGKAPKLLIYKASILKIGVPSRFSGSGSGTDFTLTITSLQPDDFATYYCQQYYSYSRTFGQGTKVEIK
modifications: tubulysin AZ1508 conjugated to a cysteine by a thiol-maleimide linkage; site not stated for these assays (engineered cysteine 239i or native cysteines)
Regarding B1, the “IC50 (ng/ml), cytotoxic killing of SKMEL-2 cells, ASCT1-shRNA1 knockdown” value was 7.59 ng/mL; the “IC50 (ng/ml), cytotoxic killing of SKMEL-2 cells, ASCT1-shRNA2 knockdown” value was 4.96 ng/mL; the “IC50 (ng/ml), cytotoxic killing of SKMEL-2 cells, ASCT2-shRNA knockdown” value turned out to be 205 ng/mL; the “IC50 (ng/ml), cytotoxic killing of SKMEL-2 cells, NTshRNA (non-target control)” value is 14.3 ng/mL.

For the origin of these results see patent US20180273617A1 (AstraZeneca / MedImmune, published 2018).
